Laboratory results: US20180243432A1

Biological target: human HLA-A2 MHC class I molecule on the surface of target cells with no C2 epitope-peptide delivered or added (human)
Assay: flow cytometry, TCR STAR multimer staining of untreated (buffer only) target cells

“TCR CMV-pp65-PE STAR multimer reagent (Altor Bioscience Corp.)” showed a percent of cells stained of less than 5%.
